Data taken from patent publication US11814447B2, “Peptide ligands for binding to EphA2” (BICYCLERD LIMITED, priority 2018, dated 2023).
Starred links: 1 amine or outer side, 2 acyl side, 3 side chain; linkers in the order of their positions; H or OH if unused. Positions of bridges follow the written chain, without caps; N, C: chain ends. Non-standard residues stand in square brackets, D forms with d. Primed or numbered codes have the meaning given here. No end group written: not given here. TBMB′ = 1,3,5-tris(bromomethyl)benzene, 1,3,5-tris(methylene)benzene core, three thioethers to Cys; TATA = O=C(CC[*:1])N1CN(C(=O)CC[*:2])CN(C(=O)CC[*:3])C1; TBMB = c1c(C[*:1])cc(C[*:3])cc1C[*:2]; Sar = CNCC(=O)O

Assays:
Human EphA2 (Ecto) [1] = biological target: T1, Human EphA2 (Ecto) (Human, UniProt P29317 24-537); experiment: FP competition, tracer Compound 18
T1 construct: extracellular domain
Protocol: (§1) Peptides without a fluorescent tag were tested in competition with a peptide with a fluorescent tag and a known Kd (Table 2). Peptides were diluted to an appropriate concentration in assay buffer as described in the direct binding assay with a maximum of 5% DMSO, then serially diluted 1 in 2. […] Measurements were conducted as for the direct binding assay, however the gain was determined prior to the first measurement. Data analysis was in Systat Sigmaplot version 12.0 where the mP values were fit to a user defined cubic equation to generate a Ki value: […]
T1 sequence (P29317 24-537): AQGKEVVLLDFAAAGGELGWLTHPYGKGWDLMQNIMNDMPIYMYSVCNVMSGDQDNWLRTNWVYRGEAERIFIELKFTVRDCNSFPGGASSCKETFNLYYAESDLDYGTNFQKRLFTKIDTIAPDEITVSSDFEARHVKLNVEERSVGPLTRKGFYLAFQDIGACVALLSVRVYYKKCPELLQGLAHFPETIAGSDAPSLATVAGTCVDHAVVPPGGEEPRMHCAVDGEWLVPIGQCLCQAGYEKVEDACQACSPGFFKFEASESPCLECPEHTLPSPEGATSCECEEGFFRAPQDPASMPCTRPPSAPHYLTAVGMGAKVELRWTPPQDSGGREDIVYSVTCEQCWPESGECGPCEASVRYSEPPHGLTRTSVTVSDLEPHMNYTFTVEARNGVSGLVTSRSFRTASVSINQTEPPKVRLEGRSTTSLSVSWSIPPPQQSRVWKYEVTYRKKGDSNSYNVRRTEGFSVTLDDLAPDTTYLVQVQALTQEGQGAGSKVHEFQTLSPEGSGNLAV

Human EphA2 (Ecto) [2] = biological target: T1, Human EphA2 (Ecto); experiment: FP competition, tracer Compound 18; remark: listed apart in the source
Protocol: as §1

Human EphA2 (Ecto) [3] = biological target: T1, Human EphA2 (Ecto); experiment: FP competition, tracer Compound 66
Human EphA2 (Ecto) [4] = biological target: T2, Human EphA2 (Ecto) (Human, UniProt P29317 24-537); experiment: FP competition; tracer Reference Compound C
T2 construct: extracellular domain; in-house)
Method in brief: (§2)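 Unlabelled peptides competed against a fluorescently tagged peptide of known Kd. Peptides were diluted in direct-binding assay buffer (≤5% DMSO) and serially diluted 1 in 2. Read as in the direct binding assay, with gain set before the first read; mP values fit to a cubic equation to give Ki.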
T2 sequence (P29317 24-537): as above

Mouse EphA2 (Ecto) = biological target: T3, Mouse EphA2 (Ecto) (Mouse, UniProt Q03145 26-538); experiment: FP competition; tracer Reference Compound C
T3 construct: extracellular domain; C-terminal polyHis; not shown: Fc fusion or C-terminal polyHis
Method in brief: as §2

T3 sequence (Q03145 26-538): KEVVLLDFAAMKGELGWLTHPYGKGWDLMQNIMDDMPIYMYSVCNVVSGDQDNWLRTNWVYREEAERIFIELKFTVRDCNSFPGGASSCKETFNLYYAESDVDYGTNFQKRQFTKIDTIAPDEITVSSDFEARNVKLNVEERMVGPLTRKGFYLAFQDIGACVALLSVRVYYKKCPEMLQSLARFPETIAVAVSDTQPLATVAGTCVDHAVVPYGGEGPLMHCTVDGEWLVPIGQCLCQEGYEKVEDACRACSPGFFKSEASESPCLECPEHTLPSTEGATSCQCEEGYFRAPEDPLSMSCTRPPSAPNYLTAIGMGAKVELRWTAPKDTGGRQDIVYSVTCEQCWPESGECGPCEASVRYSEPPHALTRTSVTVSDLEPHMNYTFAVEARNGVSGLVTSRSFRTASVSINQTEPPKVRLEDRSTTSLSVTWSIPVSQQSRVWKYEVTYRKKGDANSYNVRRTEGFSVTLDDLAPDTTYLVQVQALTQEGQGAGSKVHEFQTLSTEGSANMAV

| Ki (Human EphA2 (Ecto) [1]) [nM] | Ki (Human EphA2 (Ecto) [2]) [nM] | Ki (Human EphA2 (Ecto) [3]) [nM] | Ki (Human EphA2 (Ecto) [4]) [nM] | Ki (Mouse EphA2 (Ecto)) [nM] | Binder |
| --- | --- | --- | --- | --- | --- |
| 6.69 | 6.69 | – | – | – | Ac-[Sar][Sar]A[dD]VTCPWGPAWCPVNRPGC (linker 7-14-21 via TBMB′) [Bicycle Compound 173] |
| – | > 1000 | 1410 | – | – | [Sar][Sar]ACPWGPFWCPVN[dA]PGC (linker 4-11-18 via TBMB) [Bicycle Compound 302] |
| – | > 1000 | 1100 | – | – | [Sar][Sar]ACPWGAFWCPVNRPGC (linker 4-11-18 via TBMB) [Bicycle Compound 289] |
| – | – | – | 5.41 | 48.2 | CPLVNPLCLHPGWTCLHGXXXXXXK (N-terminal acetyl; X at 19-24 = Sar; K25 = D-Lys; 3 Cys thioether-linked to TATA scaffold) [Bicycle Compound Number 77 (BCY6019) (TATA scaffold), Ac-CPLVNPLCLHPGWTCLHG-Sar6-(D-K)] |
| – | 677 | 471 | – | – | [Sar][Sar]ACPWGPFWCPVNR[dA]GC (linker 4-11-18 via TBMB) [Bicycle Compound 105] |
| – | – | – | – | 7.27 | ACPLVNPLCLHPGWTCLHG (linker 2-9-16 via TATA) [Bicycle Compound Number 73 (TATA scaffold), ACPLVNPLCLHPGWTCLHG] |
| – | 199 | 288 | – | – | [Sar][Sar]ACPWGPAWCPVNRPGC (linker 4-11-18 via TBMB) [Bicycle Compound 83] |
| – | – | – | 19.3 | 166 | ARDCPLVNPLCLHPGWTCAXXXXXXK (N-terminal acetyl; X at 20-25 = Sar (sarcosine); K26 = D-Lys; 3 Cys thioether-linked to TATA scaffold) [Bicycle Compound Number 68 (TATA scaffold), Ac-ARDCPLVNPLCLHPGWTCA-Sar6-(D-K)] |
| – | 124 | 194 | – | – | [Sar][Sar]ACPWGPFWCPVNRAGC (linker 4-11-18 via TBMB) [Bicycle Compound 104] |
| – | 89 | 110 | – | – | [Sar][Sar]ACPWGPFWCPVNRP[dA]C (linker 4-11-18 via TBMB) [Bicycle Compound 112] |
| – | 317 | 312 | – | – | [Sar][Sar]ACPWGPFWCPV[dA]RPGC (linker 4-11-18 via TBMB) [Bicycle Compound 102] |
| – | – | – | 4.94 | 57.6 | XXXXXXXXXXXARDCPLVNPLCLHPGWTC (N-terminal (β-Ala)-Sar10; 3 Cys thioether-linked to TATA scaffold) [Bicycle Compound Number 66 (BCY6099) (TATA scaffold), (β-Ala)-Sar10-ARDCPLVNPLCLHPGWTC] |
| 394 | 394 | – | – | – | ADVHCPWAPFWCPVNRPGCA (linker 5-12-19 via TBMB) [Bicycle Compound 151] |
| 14.9 | 14.9 | – | – | – | ADVHCPWGPFWCPVN[dA]PGCA (linker 5-12-19 via TBMB) [Bicycle Compound 156] |
| 2 | 2 | – | – | – | ADVHCPWGPFWCPV[dA]RPGCA (linker 5-12-19 via TBMB) [Bicycle Compound 155] |
| 1.8 | 1.8 | – | – | – | ADVHCPWGAFWCPVNRPGCA (linker 5-12-19 via TBMB) [Bicycle Compound 152] |
| – | 108 | 238 | – | – | [Sar][Sar]ACPWGPFWCPVNRPAC (linker 4-11-18 via TBMB) [Bicycle Compound 111] |
| – | > 1000 | – | – | – | [Sar][Sar]ACPWGPFWCAVNRPGC (linker 4-11-18 via TBMB) [Bicycle Compound 291] |
| – | – | – | 10 | 75.2 | XXXXXXXXXXXACPLVNPLCLHPGWTCLHG (X1 = β-Ala; X at 2-11 = Sar; H29 = D-His; 3 Cys thioether-linked to TATA scaffold) [Bicycle Compound Number 76 (TATA scaffold), (β-Ala)-Sar10-ACPLVNPLCLHPGWTCL(D-His)G] |
| – | – | – | 6.05 | 39.1 | ARDCPLVNPLCLHPGWTCA (linker 4-11-18 via TATA) [Bicycle Compound Number 65 (TATA scaffold), ARDCPLVNPLCLHPGWTCA] |
